{"source": "patent US20140120106A1", "about": "“Stimulation of Arterial Collateral Growth and Lymphogenesis” (YALE UNIVERSITY, priority 2011, published 2014)", "binders": {"B1": {"name": "14-3-3 (other, human, UniProt P63104 1-245, looked up)", "chain": "MDKNELVQKAKLAEQAERYDDMAACMKSVTEQGAELSNEERNLLSVAYKNVVGARRSSWRVVSSIEQKTEGAEKKQQMAREYREKIETELRDICNDVLSLLEKFLIPNASQAESKVFYLKMKGDYYRYLAEVAAGDDKKGIVDQSQQAYQEAFEISKKEMQPTHPIRLGLALNFSVFYYEILNSPEKACSLAKTAFDEAIAELDTLSEESYKDSTLIMQLLRDNLTLWTSDTQGDEAEAGEGGEN", "notes": "The results speak only of '14-3-3'; the zeta isoform is inferred from the antibody list; Endogenous protein in the cell lysate; also called 14-3-3 protein; 14-3-3ζ"}}, "target": "T1, HA-tagged human Raf1 S259A (human, UniProt P04049 1-648)", "T1 construct": "Overexpressed in HUVEC by lentivirus, immunoprecipitated from Triton lysates with anti-HA; also called Raf1SA; RAF1 Ser259 to Ala259 mutant; not shown: HA (hemagglutinin) tag", "test": "co-immunoprecipitation (anti-HA) from lentivirus-infected HUVEC lysates, western blot", "data": [{"binder": "B1", "values": [{"measurement": "binding result", "result": "no binding"}]}]}
